Data from patent US20150110781A1.

B1: Hu1A9-1 (antibody, V domains shown)
VH: QVQLVQSGAEVKKPGASVKVSCKASGYSFTDYIMLWVRQAPGQRLEWIGDIYPYYGSTSYNLKFKGKATLTVDTSASTAYMELSSLRSEDTAVYYCARQGGDGNYVLFDYWGQGTLVTVSS
VL: DIQMTQSPSSLSASVGDRVTITCKASQNVGTTVAWYQQKPGKAPKALIYSASYRYSGVPSRFSGSGSGTDFTLTISSLQPEDFATYYCQQYNSYPFTFGQGTKLEIKR
B2: Hu1A9-2 (antibody, V domains shown)
VH: QVQLVQSGAEVKKPGASVKVSCKASGYSFTDYIMLWVRQAPGQRLEWIGDIYPYYGSTSYNLKFKGKATLTVDTSASTAYMELSSLRSEDTAVYYCARQGGDGNYVLFDYWGQGTLVTVSS
VL: DIQMTQSPSSLSASVGDRVTITCKASQNVGTTVAWYQQKPGKAPKVLIYSASYRYSGVPSRFSGSGSGTDFTLTISSLQPEDFATYYCQQYNSYPFTFGQGTKLEIKR
B3: Mouse CT.RV 7G11A3 2G11 (antibody, V domains shown)
VH: EVQLVESGGGLVKPGGSLILSCAASGFTFSGFAMSWVRQTPEKRLEWVATISSGGTYTYSPDSVMGRFTISRDNAKNTLYLQMSSLRSEDTAMYYCARRLRRNYYSMDYWGQGTSVTVSS
VL: DVVLTQAPLSLPVNIGDQASISCKSTKSLLNSDGFTYLDWYLQKPGQSPQLLIYLVSNRFSGVPDRFSGSGSGTDFTLKISRVEAEDLGIYFCFQSNYLPFTFGSGTKLEIK
B4: Mouse CT.RV 3D11E3 1A9 (antibody, V domains shown)
VH: EIQLQQTGPELVKPGASVKISCKASGYSFTDYIMLWVKQSHGKSLEWIGDIYPYYGSTSYNLKFKGKATLTVDKSSSTAYMQLNSLTSEDSAVYYCARQGGDGNYVLFDYWGQGTTLTVSS
VL: DIVMTQSQKFMSTSVGDRVSVTCKASQNVGTTVAWYQQKPGQSPKALIYSASYRYSGVPDRFTGSGSGTDFTLTISNVQSEDLAEYFCQQYNSYPFTFGSGTKLEIK

Assays:
Test in all cases: cell-based or functional assay
[1] = molecular target: CVS-11 rabies virus (rabies virus) (UniProt O92284)
Sequence of UniProt O92284 (O92284 20-524): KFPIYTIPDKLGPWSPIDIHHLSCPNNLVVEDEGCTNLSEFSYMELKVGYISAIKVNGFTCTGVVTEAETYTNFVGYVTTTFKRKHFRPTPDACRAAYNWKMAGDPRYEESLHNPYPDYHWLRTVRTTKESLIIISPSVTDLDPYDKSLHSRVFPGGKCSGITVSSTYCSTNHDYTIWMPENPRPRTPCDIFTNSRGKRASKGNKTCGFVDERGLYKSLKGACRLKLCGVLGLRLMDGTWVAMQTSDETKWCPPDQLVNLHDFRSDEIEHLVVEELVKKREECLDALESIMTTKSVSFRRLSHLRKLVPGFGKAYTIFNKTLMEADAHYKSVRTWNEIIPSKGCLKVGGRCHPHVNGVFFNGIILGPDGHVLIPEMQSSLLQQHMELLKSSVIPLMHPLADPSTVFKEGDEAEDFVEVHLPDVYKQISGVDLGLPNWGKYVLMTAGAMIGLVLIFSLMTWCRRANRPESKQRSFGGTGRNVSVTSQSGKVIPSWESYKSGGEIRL

[2] = molecular target: Street rabies virus Dog, ZJ-HZ09, Zhejiang (rabies virus)
[3] = molecular target: Street rabies virus Dog, SC-CD09, Sichuan (rabies virus)
[4] = molecular target: Street rabies virus Dog, BD06, Hebei (rabies virus)
[5] = molecular target: Street rabies virus Ferret Badger, JX09-27, Jiangxi (rabies virus)
[6] = molecular target: Street rabies virus Human, YN1, Yunnan (rabies virus)
[7] = molecular target: Street rabies virus Dog, GN07, Guangdong (rabies virus)
[8] = molecular target: Street rabies virus Ferret Badger, ZJ-LA, Zhejiang (rabies virus)
[9] = molecular target: Street rabies virus Human, HN35, Hunan (rabies virus)
[10] = molecular target: Street rabies virus Deer, DRV, Jilin (rabies virus)
[11] = molecular target: Street rabies virus Ferret Badger, JX08-45, Jiangxi (rabies virus)

Binder | Neutralization potency (IU/mg), FAVN [1] | Neutralization potency (IU/mg), RFFIT [1] | mouse neutralization test (MNT): survival rate at 0.004 mg/mL antibody [1] | mouse neutralization test (MNT): survivors of 8 mice at day 20 (of 8 surviving) [2] | mouse neutralization test (MNT): survivors of 8 mice at day 20 (of 8 surviving) [3] | mouse neutralization test (MNT): survivors of 8 mice at day 20 (of 8 surviving) [4] | mouse neutralization test (MNT): survivors of 8 mice at day 20 (of 8 surviving) [5] | mouse neutralization test (MNT): survivors of 8 mice at day 20 (of 8 surviving) [6] | mouse neutralization test (MNT): survivors of 8 mice at day 20 (of 8 surviving) [7] | mouse neutralization test (MNT): survivors of 8 mice at day 20 (of 8 surviving) [8] | Neutralizing Potency (IU/mg), RFFIT [1] | mouse neutralization test (MNT): survivors of 8 mice at day 20 (of 8 surviving) [9] | mouse neutralization test (MNT): survivors of 8 mice at day 20 (of 8 surviving) [10] | mouse neutralization test (MNT): survivors of 8 mice at day 20 (of 8 surviving) [11]
B1 | 2100 IU/mg | 2290 IU/mg | 100% |  |  |  |  |  |  |  |  |  |  | 
B2 | 405 IU/mg | 1310 IU/mg |  |  |  |  |  |  |  |  |  |  |  | 
B3 | 8310 IU/mg | 1670 IU/mg |  | 7 | 8 | 6 | 8 | 7 | 7 | 8 | 701 IU/mg | 8 | 8 | 8
B4 | 308 IU/mg | 1260 IU/mg | 50% | 6 | 8 | 4 | 8 | 7 | 7 | 7 | 3680 IU/mg | 8 | 7 | 8
